Test: soluble on expression in E. coli; label from the status in PepcDB or PDB records

Row | Sequence | soluble on expression in E. coli
1 | MRKNISENNGKRPGSVKSRFLVSAFAVFLVAYSQTGRSSEEVLEQYKSLFAQQQKEFEKQRQIIIEQGKEIEKLKSRLDSLITTQPTDRSPASNVAGKDGQRPPQVSSPSTPKTVVAGPVGKKNDQVQTRTVPGNLPAGPVGQAPPKQDEKPRPPEMPRLSDAVGGVLTRKGKIVVEPALEYAFTDSNRIFLDAFTFLPAIAIGLIDVRQVDQHSLMASIGARYGVTDRLEVEARVPYRARFDEQRSRPVSIGAGIDETFNASGNGLGDIEFAARYQLNSGAGGWPILVGNMRATVPTGKGPFDIKYAQAQGVPGAVFPTEVPTGSGFFSFEPSVTALYATDPAVFFANLAYNYNMGTTEKALDGSGDKFKVDPGYAVGMTFGMGFGINERSSFNIGYGHRHIFNTKINNRTLKGSQLDIGQLLLGYAFKYSQQTTLNFSIAIGTTDDAQDVRLSFRVPMTFLEHHHHHH | soluble
2 | SSFQTSLPRLPVPAVKDTVNRYLQSVRPLMKEEDFKRMTALAQDFAVGLGPRLQWYLKLKSWWATNYVSDWWEEYIYLRGRGPLMVNSNYYAMDLLYILPTHIQAARAGNAIHAILLYRRKLDREEIKPIRLLGSTIPLCSAQWERMFNTSRIPGEETDTIQHMRDSKHIVVYHRGRYFKVWLYHDGRLLKPREMEQQMQRILDNTSEPQPGEARLAALTAGDRVPWARCRQAYFGRGKNKQSLDAVEKAAFFVTLDETEEGYRSEDPDTSMDSYAKSLLHGRCYDRWFDKSFTFVVFKNGKMGLNAEHSWADAPIVAHLWEYVMSIDSLQLGYAEDGHCKGDINPNIPYPTRLQWDIPGECQEVIETSLNTANLLANDVDFHSFPFVAFGKGIIKKCRTSPDAFVQLALQLAHYKDMGKFCLTYEASMTRLFREGRTETVRSCTTESCDFVRAMVDPAQTVEQRLKLFKLASEKHQHMYRLAMTGSGIDRHLFCLYVVSKYLAVESPFLKEVLSEPWRLSTSQTPQQQVELFDLENNPEYVSSGGGFGPVADDGYGVSYILVGENLINFHISSKFSCPETDSHRFGRHLKEAMTDIITLFGLSSNSKK | soluble
3 | MWLIILWNAKPDTPLFNFKDEVIKYKTYEPFESSIKRVNTTIKNGSKGKTLTEMINGYRADNDIRDEICNFNILKNKIRDMKNQQGNTMESYF | not soluble
4 | MSLSRVEETGLGFVGTFESGFTQGTVGVGVDAIGMLGLKLDSGKGRAGTGLFPTGSDGRSQDDYSKGGGAVKFRISDTVLKVGDQFTALPVFATDDSRLLPEIAQGTLITSNEIEGLTLHAGHFTSLTAQEQTNRDSFGLKEANVVGGTYAFTDNLSTSLYYSKVEDYWRKYYANVNWALPISDNQGLVFDFNIYDTKSEGSAEYRAFDGDKLDNRAFSLSGAYNIGAHTFTLAYQKVTGDGDYGYGIDGGGTIFLANSVARSDFNAEDEKSWQARYDLNFAEYGIPGLTFMTRYVRGSDANVAGTSNGKEWERDVDIKYVLQEGPAKDLSFRVRQATYRSSDGVYYDSPSIDELRLIVEYPLNILEGHHHHHH | soluble
5 | EAMKIKNQFATWDYEKKLQSMEHDSSIQKQLLATQRAQIEQRLAAQKAALEAERDAAGYHAAAGEADNEGVRQAYDALAQDSARRARDLAETAQRGKSQLDEIVGRLKDLADRSAANIINQGINQTVVVKLEKTGRLHTDQDIAKALEETLNAVKGLEARVEMVEAARAPSALEAAHSQL | not soluble
6 | MGSDKIHHHHHHMMTAHAIGTREEWLAARLDLLEAEKNLTRRSDELAKWRRELPWVRIDKAYRFETDEGEASLRDLFKGRSQLLVYHFMFGPDYTAGCPSCSAIADGFNGIVAHLENHDVAFSAVSRAPLAKLTAYKRRLGWSFPWASSDDGAFNRDFCVWFTEQQQREGGIEYNFRREPPIPEQPASEPLAGRTVREWDASGSEGPVAQIAAMTGTDVATYTRDRPGVSAFALEDGIVYHTYSSYARGLDGLWGMYQWLDRTPKGRNENGIWWRRHDEYAQG | not soluble
7 | GPGSMTSPAQAQVHSAPSRHAHTSILSQQMLSTPAGHPVSQPDTSQAAPDAPVWRPTTVPWKPVDTQQSACSALPAKTDDAIAAHSLQWERDAAVGNPNDESGRVVSQAFAFPRWMGPPALTSTATSREEGDSPTATVPSMEERWSTFQRLAQASEATFRSMSEATARQHADVTAHQKEIAAYQESQRQLTLQQQQRLDSLTRECAQLRQTEASTKEVVAHQVERLVALESELQTTRVQLSEIRLAQAQCVEERKRLQQACKMHEVHTSELQASLQFADEVVRSMRQTVAACEREKNEALMQQYSNFESYRNNLIAAYDKRAAEARDEFAKRVESLQAGMLETVAKREEQLKASWEETATRMRHEYDELVRLGQQRRAAMDTELRERKEQLERDKEFMRVQQREEADMMEQRFRAREETLLDDIARRERELREREAVLRAAQAQQEVDVQRRLQAREAELRAAHDAALKRMADQAAAEREKLSENFMERLQQLSNAHMQQERELERMHREKEREMAQRYRLSGIDGGDRGEVRDRRATEYALASPSMAKEALLKKFETVEQRQRERSDKLRSAFSAQENELQPPL | soluble
8 | MGSDKIHHHHHHMKSWVENVTIKKYEDRSGLTGLKQGPLVWTEVFLREVNRQSNTGILHFWPMDQTVILGMMDSQVAQLDKGLASIGQAGYSPIIRSLGGLAVVADDGILNVTLIFPNPSGHKVDLRESYQVMVDLIAQALSDFPFEVVSGEVATSYCPGTYDLSIKGRKFAGLAQRIYQEAIAISAYISVSGNQVKRGQVVADFYAASFAPQEVSDRFPQVNPNSMANLSDLVAQDLTMEDMKIRIEHVLIENGAFLTTFYPSSDNMADFMALGKTIKQSMEKYGI | not soluble
9 | MLSQLREIVEKVSRVDDVHLALDILVKETCAALRTECCTIYLANEEMQRLELMATQGLIFEGDSIHINFNEGLVGLVKRSAEPLNLAEASKHPEFKFFPQLGEQVYHSFLATPIIHRKQVLGVLVIQQKTPRLFSEMEESFLVTLSAQLAVIIAHAQSLGHWQ | not soluble
10 | DRETAPTIKINQITLRYSANQEPVLSGVSADIESGDCVAVIGPNACGKTSLLLSLLGVVEPQAGFIMVNNKNLKQYDPETFREYAGYCPAEPDLFPGTLADNLRIAKPDATDEELIAALKHAGGESLFIALNSNLNIMLENNASNMLSAVEGSYINLARAFLKKSNFIILDEPLANRNPQARKAFSNTILALKGKATIVFSSHDPELIKLADKVIVLDKGSVVYAGPIPEKNSQEMESSNHE | not soluble
11 | QLVWGPDLSEKASAQRTRVFVDAARRGEIYDNTGQLLAYTMQARSLTASPKQLRKEIEYTAKIELQDEKEYSSWDENQRKKKIEDKVDSYLEEYSNEIPKIIKDSEASANDIKSKDILKKLKADTSYEVLVRNVDPDVAENIAQKFHGIAADLQQIRQYPNGAVAENVIGKISQDGQGQFGFESSNNSVLSGIDGRKTLDVAASGEVIPGSLRDEVPATNGANVTLTLDLDMQTYVQQQLEQAVSNSGAQSASAVVLDVKTGKVLTMANSGTINPNGDIEKQLKDNKSFENTTISSPFEPGSVAKIITAAGVIEDGKSTPDEVLQVPGSIEMSGVNVRDAWEHGTVGYTTTGIFGKSSNVGTLMLAQRLGEQRFNDLLHRFGIGQNTGIELPVESQGLLPDISQ | not soluble
12 | MAILITGGAGYIGSHTCVELLNNNYKIIVVDNLSNSSIESLNRVKEITGKQFEFYKENVLNREKMNEIFLENNIEAVIHFAGFKAVGESTTTPLAYYYNNIISAIVLCDVMQKHNVKNFIFSSSATVYGIPKTLPITEEFPLSVTNPYGQTKLMIEQIMRDVAKADDEWSIALLRYFNPFGAHQSGRIGEDPNGIPNNLMPYVTQVAVGKLKELNIFGNDYPTKDGTGVRDYIHVVDLAKGHVKALEKVLKTKGIEAYNLGTGKGYSVLEMVKAFEKVSGKKIPYKVIGRRPGDVAICFADVSKAKRELGWEAEYGLEEMCVDSWRWQVNNKNGYQMI | not soluble
13 | MTGVDPTIVKIHEIQGTGTASPLVNNVVTIEAIVVGDFQDGDGDISRNLRGFYVQEEDADVDGNVATSEGIFIFENGNFITDVNVGDKVQITGTVDEFFGETQIDTITNITVISSGNTLPTAANITLPTAGTTESQGGTPQPDLEAFEGMLVKFTDTLTITEMFNLDRFNEIKLSQGGRPQQFTQFNDANVAGYGAYREEIGARTITYDDGLSVQNAEISNLDGFGSSFSTASDIRMGDTINNLTGVLSYQWAGNASSGATWRVRSAVDGTNQFTKVNDRPVTPENVGGSLKVTGFNVLLEHHHHHH | soluble
14 | MGSDKIHHHHHHMKFTINRTLFIEKLEKASATVDVKNPMPALQGVLLDCNSKGMILMGSDGTETVTLVTRFNVNSGDCTEPGKVLFAAAPVLKTIKKFKSEFIGLEHKNNELKIVESKKKQFSFCTMDHEEYPEIKIEAGEDWISLSQEQFVSMANGTLHAIPAMDTRKILTGVNLKSVDDKFFSIATDAHRLARLHFDCTKITIAKDGEVVLPIKSLKTALKLFNRETNLQLKLISDTQLLIRGESIIYQSRLLAGTYPDTARMVPDEFKSEIQLSREEFKNTLEQLSAFSSLIVLTSEGKESIHLKPQNSQVGTASVEIPCNQVEAFTLACNVEYLLQALQTITSETIAIKMISNQRPIVVVGAEDTTHSNLQLILPVRV | not soluble
15 | GPGSMLGWSGTRFAAALHLRSVCSPRSAAAQGSHARAPRALSSSSSFVALFGSARGFSGTARRFSGTFHYRKVRLTPEDALDPLTKPTNIDKAALHVVSVPIGNLKDFSLRALDVLRGVDYIITTDRPATKTLLDLVNIPNQGRLIHYSRGNRSTSREKLVELLKGGRSMALVTTSGTPCIGDVGGELVQELQKSGIRVTAVPGASALMSALAISGLTTSAYESAKNDKRGADAAADGEAGLSPQTFEDGSFFFGNVLPKSHGARLRILRTIVAPATFPCVFYEVPYRLVMVLQDIASVLPHRFVYVTHELTKLNESLHADTAERLVGFYLRQEAQMLVKKGQLVLVIAGAGPKETAAWLEKEAAKRRRLRRTVSDLMKDAPPAASSHLESAPGTGGTTAAASSSRESSVTTAKEERRQRRKQRAELRRLRQRKKRERLIRAIESEQERLRVILSINRNDASRLM | not soluble
16 | MPVSSRRCGMITRREAERLCKSFLGDNTPPRLPDDFAFNVQHKCAWGCRGSFLPSRYNSSRAKCIKCSYCGMFFSPNKFIFHSHRITTNDRYVQPDAANFNSWRRHMSLSGNDYDEKIIHAWEDVKAMFNGGTRKRLVGSSINPRSPGSPTQSTAVSSGVGSSSCGSPTSFERDTNEVDGKSGSSLPQRSQIDSQYNYGTVAAAAAVVGVTAVAAATELCSGLHVAAEGPTLSAALRKKNPLEHHHHHH | not soluble
17 | CHETTTVALPESIGVGKGTTTLEDFENADAIFIIGQNPGSNSPRMMSELHAAAKRGASIISFNPLREKALVRFASPQDPRDMLSLHGVEISSQYHQVRIGGDMIALQGVCKAVIEADDVARREHLPRVLDVAFIEEHTHGFEQYADYCRQLPWDLIESHSGLTRQAIEDVAAVYRRSERVICCWGMGVTQHKRGGDAVQQIINLLLLRGNIGKLGAGACPVRGHSNVQGDRTMGIYEKAGEPFLASMSKVFGFEA | not soluble
18 | MSLSITRKDFDHINLEYSGLEKVNKAVAAGNYDDAAKALLAYYREKSKAREPDFSNAEKPADIRQPIDKVTREMADKALVHQFQPHKGYGYFDYGKDINWQMWPVKDNEVRWQLHRVKWWQAMALVYHATGDEKYAREWVYQYSDWARKNPLGLSQDNDKFVWRPLEVSDRVQSLPPTFSLFVNSPAFTPAFLMEFLNSYHQQADYLSTHYAEQGNHRLFEAQRNLFAGVSFPEFKDSPRWRQTGISVLNTEIKKQVYADGMQFELSPIYHVAAIDIFLKAYGSAKRVNLEKEFPQSYVQTVENMIMALISISLPDYNTPMFGDSWITDKNFRMAQFASWARVFPANQAIKYFATDGKQGKAPNFLSKALSNAGFYTFRSGWDKNATVMVLKASPPGEFHAQPDNGTFELFIKGRNFTPDAGVFVYSGDEAIMKLRNWYRQTRIHSTLTLDNQNMVITKARQNKWETGNNLDVLTYTNPSYPNLDHQRSVLFINKKYFLVIDRAIGEATGNLGVHWQLKEDSNPVFDKTKNRVYTTYRDGNNLMIQSLNADRTSLNEEEGKVSYVYNKELKRPAFVFEKPKKNAGTQNFVSIVYPYDGQKAPEISIRENKGNDFEKGKLNLTLTINGKQQLVLVPEGHHHHHH | soluble
